The target in the experiment is M2 muscarinic receptor fused to CFP (M2R-CFP) (UniProt P08172). Nature of the experiment: FRET or BRET.

In PMC2818375 one finds %FRET data, which are given here for one substance.

Sequence of UniProt P08172 (P08172 whole entry, the tested form may be a part): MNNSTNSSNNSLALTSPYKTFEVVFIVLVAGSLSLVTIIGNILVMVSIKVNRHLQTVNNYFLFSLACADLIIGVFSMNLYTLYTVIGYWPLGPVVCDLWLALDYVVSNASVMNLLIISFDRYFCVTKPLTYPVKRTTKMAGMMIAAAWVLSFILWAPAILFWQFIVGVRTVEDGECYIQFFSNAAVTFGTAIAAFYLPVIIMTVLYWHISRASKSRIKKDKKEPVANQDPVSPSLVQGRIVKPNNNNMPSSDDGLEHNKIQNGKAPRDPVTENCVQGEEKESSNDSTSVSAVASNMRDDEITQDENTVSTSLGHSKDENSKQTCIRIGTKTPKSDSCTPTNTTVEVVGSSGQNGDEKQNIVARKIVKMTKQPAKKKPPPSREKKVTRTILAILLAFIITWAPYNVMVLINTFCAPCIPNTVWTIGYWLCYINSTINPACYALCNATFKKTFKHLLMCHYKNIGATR

The substance “GBR1R2-YFP chimera (N-terminal and transmembrane domains of GBR1, C-terminal domain of GBR2) (receptor)” had a %FRET of 6 %FRET.
